# Measurements: PMC4521985
# Tests used:
# IFP2.0 = IFP2.0 (UniProt Q9RZA4); assay: AUC
# IFP1.4 = IFP1.4 (UniProt Q9RZA4); assay: AUC
Kd (IFP2.0) [µM],stoichiometry N (IFP2.0),Kd (IFP1.4) [µM],stoichiometry N (IFP1.4),Substance
3.7,2,,,IFP2.0 (from UniProt Q9RZA4 1-321)
,,7.8,2,IFP1.4 (from UniProt Q9RZA4 1-321)
